Assay results from US12404328.

Target: CD19 expressed on the surface of KILR Raji cells (UniProt P15391)
Assay: cell-based or functional assay

Chain of CD19 expressed on the surface of KILR Raji cells (P15391 20-556 limits assumed): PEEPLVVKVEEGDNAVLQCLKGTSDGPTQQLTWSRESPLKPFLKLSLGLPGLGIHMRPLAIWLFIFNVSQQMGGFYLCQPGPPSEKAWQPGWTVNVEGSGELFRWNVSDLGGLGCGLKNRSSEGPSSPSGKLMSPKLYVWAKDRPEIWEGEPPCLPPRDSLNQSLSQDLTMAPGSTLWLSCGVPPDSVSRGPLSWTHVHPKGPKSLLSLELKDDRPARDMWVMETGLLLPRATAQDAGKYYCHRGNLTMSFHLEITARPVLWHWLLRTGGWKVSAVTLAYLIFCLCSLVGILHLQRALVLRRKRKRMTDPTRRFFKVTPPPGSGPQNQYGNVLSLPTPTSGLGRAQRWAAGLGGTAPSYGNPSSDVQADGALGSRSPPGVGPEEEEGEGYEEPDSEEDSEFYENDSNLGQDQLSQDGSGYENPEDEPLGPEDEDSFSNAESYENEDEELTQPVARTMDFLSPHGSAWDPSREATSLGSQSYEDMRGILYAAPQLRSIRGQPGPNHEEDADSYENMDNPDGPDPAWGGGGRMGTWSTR

## blinatumomab (bispecific antibody)
  EC50 of T cell-redirected killing of KILR Raji cells, +HSA (15 mg/mL): 10.8 ng/mL
  EC50 of T cell-redirected killing of KILR Raji cells, -HSA: 2.85 ng/mL
  Fold change (EC50 +HSA / EC50 -HSA) of killing of KILR Raji cells: 3.8 fold
